Source: paper PMC9637154 (Communications Biology, 2022)

Biological target: T1, CoV2 Parental S-RBD fused with human Fc (SARS-CoV-2, UniProt P0DTC2)
T1 construct: also called Parental RBD; RBD-Fc
Assay: BLI
Details: both partners purified

B1: shACE2 N53A/N90A/N322A triple glycan deletant (domain or fragment)
chain: STIEEQAKTFLDKFNHEAEDLFYQSSLASWNYNTAITEENVQNMNNAGDKWSAFLKEQSTLAQMYPLQEIQALTVKLQLQALQQNGSSVLSEDKSKRLNTILNTMSTIYSTGKVCNPDNPQECLLLEPGLNEIMANSLDYNERLWAWESWRSEVGKQLRPLYEEYVVLKNEMARANHYEDYGDYWRGDYEVNGVDGYDYSRGQLIEDVEHTFEEIKPLYEHLHAYVRAKLMNAYPSYISPIGCLPAHLLGDMWGRFWTNLYSLTVPFGQKPNIDVTDAMVDQAWDAQRIFKEAEKFFVSVGLPAMTQGFWENSMLTDPGNVQKAVCHPTAWDLGKGDFRILMCTKVTMDDFLTAHHEMGHIQYDMAYAAQPFLLRNGANEGFHEAVGEIMSLSAATPKHLKSIGLLSPDFQEDNETEINFLLKQALTIVGTLPFTYMLEKWRWMVFKGEIPKDQWMKKWWEMKREIVGVVEPVPHDETYCDPASLFHVSNDYSFIRYYTRTLYQFQFQEALCQAAKHEGPLHKCDISNSTEAGQKLFNMLRLGKSEPWTLALENVVGAKNMNVRPLLNYFEPLFTWLKDQNKNSFVGWSTDWSPYADQSIK
notes: also called N53A/N90A/N322A triple deletant; N53A/N90A/N322 triple deletant
Kd: 254 nM
